Source: patent US9618524B2, “Method, composition, isolation and identification of a plaque particle and related biomarker” (Plaxgen Inc., priority 2012, dated 2017)

How the values were obtained:
Assay in all cases: Mass spectroscopy proteomics, semi-quantitative binding affinity of serum proteins (plaqueproteome, Table 2)
Settings in all cases: higher number = stronger affinity
[1] = test system: Tau plaque particles; set-up: species or system human
Method in brief: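 Synthetic Tau-74 and Tau-275 peptides (1 mg/mL PBS, 37° C, 2 h) aggregated; 30 μg aggregates incubated with 50% serum/plasma 1 h at 37° C, stained with Thioflavin S, and plaque particles sorted by flow cytometry. Bound proteins trypsin-digested and identified by MS/MS against human UniProt.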

[2] = target: T1, Abeta-42 plaque particles (Homo sapiens, UniProt P05067)
T1 construct: Abeta 1-42
Method in brief: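 AD patient serum or plasma (50% in PBS) was incubated with Abeta-42 aggregates (30 μg) for 1 h at 37 °C, then stained with Thioflavin S for 30 min. Labeled particles were FACS-sorted, trypsin/Lys-C digested overnight and analyzed by MS/MS. Sequest searched human UniProt; Scaffold/Protein Prophet validated the identifications.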

[3] = test system: Low density cholesterol (Chl small) plaque particles; set-up: species or system human
Method in brief: (§1)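 Atherosclerotic plasma/serum (50% in PBS) + 30 μg cholesterol aggregates, 1 hr 37° C; FACS gates split low- vs high-density particles. Acetone precipitation, urea/ProteaseMAX, acrylamide alkylation, overnight Trypsin/Lys C at 37° C; Sequest search, Scaffold/Protein Prophet validation.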

[4] = test system: High Density cholesterol (Chl Large) plaque particles; set-up: species or system human
Method in brief: as §1

[5] = target: T2, alpha-synuclein plaque particles (Homo sapiens, UniProt P37840)
T2 construct: 140 amino acids polypeptide
Method in brief: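 AD-subject plasma or serum (800 μL of 50%) mixed with 30 μg preformed alpha-synuclein aggregates for 1 h at 37 °C; Thioflavin S-positive particles isolated by flow sorting. After reduction, acrylamide alkylation and overnight tryptic digestion, serum proteins identified by MS/MS with Sequest and Scaffold.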

Row | Molecule | Semi-quantitative analysis of proteins binding to different plaque particles: Tau [1] | Semi-quantitative analysis of proteins binding to different plaque particles: Abeta-42 [2] | Semi-quantitative analysis of proteins binding to different plaque particles: Chl small [3] | Semi-quantitative analysis of proteins binding to different plaque particles: Chl Large [4] | Semi-quantitative analysis of proteins binding to different plaque particles: Synuclein [5]
1 | Complement C2 (protein) APSCPQNVNISGGTFTLSHGWAPGSLLTYSCPQGLYPSPASRLCKSSGQWQTPGATRSLSKAVCKPVRCPAPVSFENGIYTPRLGSYPVGGNVSFECEDGFILRGSPVRQCRPNGMWDGETAVCDNGAGHCPNPGISLGAVRTGFRFGHGDKVRYRCSSNLVLTGSSERECQGNGVWSGTEPICRQPYSYDFPEDVAPALGTSFSHMLGATNPTQKTKESLGRKIQIQRSGHLNLYLLLDCSQSVSENDFLIFKESASLMVDRIFSFEINVSVAIITFASEPKVLMSVLNDNSRDMTEVISSLENANYKDHENGTGTNTYAALNSVYLMMNNQMRLLGMETMAWQEIRHAIILLTDGKSNMGGSPKTAVDHIREILNINQKRNDYLDIYAIGVGKLDVDWRELNELGSKKDGERHAFILQDTKALHQVFEHMLDVSKLTDTICGVGNMSANASDQERTPWHVTIKPKSQETCRGALISDQWVLTAAHCFRDGNDHSLWRVNVGDPKSQWGKEFLIEKAVISPGFDVFAKKNQGILEFYGDDIALLKLAQKVKMSTHARPICLPCTMEANLALRRPQGSTCRDHENELLNKQSVPAHFVALNGSKLNINLKMGVEWTSCAEVVSQEKTMFPNLTDVREVVTDQFLCSGTQEDESPCKGESGGAVFLERRFRFFQVGLVSWGLYNPCLGSADKNSRKRAPRSKVPPPRDFHINLFRMQPWLRQHLGDVLNFLPL | 0 | 0 | 1 | 0 | 0
2 | Ig lambda chain V-III region (protein) SELTQDPAVSVALGQTVRITCQGDSLRSYYASWYQQKPGQAPVLVIYGKNNRPSGIPDRFSGSSSGNTASLTITGAQAEDEADYYCNSRDSS | 2 | 0 | 1 | 1 | 2
3 | Ig lambda chain V-III region LOI (protein) VTSYVLTQPPSVSVAPGQTARITCGGNNIGSKSVHWYQQKPGQAPVLVVYDDSDRPSGIPERFSGSNSGNTATLTISRVEAGDEADYYCQVWDSSSDHPT | 1 | 2 | 1 | 1 | 2
4 | Thyroxine-binding globulin (protein) ASPEGKVTACHSSQPNATLYKMSSINADFAFNLYRRFTVETPDKNIFFSPVSISAALVMLSFGACCSTQTEIVETLGFNLTDTPMVEIQHGFQHLICSLNFPKKELELQIGNALFIGKHLKPLAKFLNDVKTLYETEVFSTDFSNISAAKQEINSHVEMQTKGKVVGLIQDLKPNTIMVLVNYIHFKAQWANPFDPSKTEDSSSFLIDKTTTVQVPMMHQMEQYYHLVDMELNCTVLQMDYSKNALALFVLPKEGQMESVEAAMSSKTLKKWNRLLQKGWVDLFVPKFSISATYDLGATLLKMGIQHAYSENADFSGLTEDNGLKLSNAAHKAVLHIGEKGTEAAAVPEVELSDQPENTFLHPIIQIDRSFMLLILERSTRSILFLGKVVNPTEA | 1 | 2 | 1 | 0 | 0
5 | Platelet basic protein (protein) SSTKGQTKRNLAKGKEESLDSDLYAELRCMCIKTTSGIHPKNIQSLEVIGKGTHCNQVEVIATLKDGRKICLDPDAPRIKKIVQKKLAGDESAD | 2 | 0 | 0 | 0 | 1
6 | Ig gamma-2 chain C region (protein) ASTKGPSVFPLAPCSRSTSESTAALGCLVKDYFPEPVTVSWNSGALTSGVHTFPAVLQSSGLYSLSSVVTVPSSNFGTQTYTCNVDHKPSNTKVDKTVERKCCVECPPCPAPPVAGPSVFLFPPKPKDTLMISRTPEVTCVVVDVSHEDPEVQFNWYVDGVEVHNAKTKPREEQFNSTFRVVSVLTVVHQDWLNGKEYKCKVSNKGLPAPIEKTISKTKGQPREPQVYTLPPSREEMTKNQVSLTCLVKGFYPSDISVEWESNGQPENNYKTTPPMLDSDGSFFLYSKLTVDKSRWQQGNVFSCSVMHEALHNHYTQKSLSLSPGK | 11 | 11 | 14 | 12 | 10
7 | Isoform 2 of N-acetylmuramoyl-L-alanine amidase (protein) SLPLLMDSVIQALAELEQKVPAAKTRHTASAWLMSAPNSGPHNRLYHFLLGAWSLNATELDPCPLSPELLGLTKEVARHDVREGKEYGVVLAPDGSTVAVEPLLAGLEAGLQGRRVINLPLDSMAAPWETGDTFPDVVAIAPDVRATSSPGLRDGSPDVTTADIGANTPDATKGCPDVQASLPDAKAKSPPTMVDSLLAVTLAGNLGLTFLRGSQTQSHPDLGTEGCWDQLSAPRTFTLLDPKASLLTMAFLNGALDGVILGDYLSRTPEPRPSLSHLLSQYYGAGVARDPGFRSNFRRQNGAALTSASILAQQVWGTLVLLQRLEPVHLQLQCMSQEQLAQVAANATKEFTEAFLGCPAIHPRCRWGAAPYRGRPKLLQLPLGFLYVHHTYVPAPPCTDFTRCAANMRSMQRYHQDTQGWGDIGYSFVVGSDGYVYEGRGWHWVGAHTLGHNSRGFGVAIVGNYTAALPTEAALRTVRDTLPSCAVRAGLLRPDYALLGHRQLVRTDCPGDALFDLLRTWPHFTAVSLRSLHYTARRPSVYTSSTRPLPPACNSCARTASARPPTSRRHVYSGNLGPAFAGHSAGNIPDPVTSAYAASAQPQTQPACPFPSS | 5 | 0 | 1 | 4 | 2
8 | Apolipoprotein C-II (protein) TQQPQQDEMPSPTFLTQVKESLSSYWESAKTAAQNLYEKTYLPAVDEKLRDLYSKSTAAMSTYTGIFTDQVLSVLKGEE | 0 | 0 | 1 | 0 | 1
9 | Desmoglein-1 (protein) EWIKFAAACREGEDNSKRNPIAKIHSDCAANQQVTYRISGVGIDQPPYGIFVINQKTGEINITSIVDREVTPFFIIYCRALNSMGQDLERPLELRVRVLDINDNPPVFSMATFAGQIEENSNANTLVMILNATDADEPNNLNSKIAFKIIRQEPSDSPMFIINRNTGEIRTMNNFLDREQYGQYALAVRGSDRDGGADGMSAECECNIKILDVNDNIPYMEQSSYTIEIQENTLNSNLLEIRVIDLDEEFSANWMAVIFFISGNEGNWFEIEMNERTNVGILKVVKPLDYEAMQSLQLSIGVRNKAEFHHSIMSQYKLKASAISVTVLNVIEGPVFRPGSKTYVVTGNMGSNDKVGDFVATDLDTGRPSTTVRYVMGNNPADLLAVDSRTGKLTLKNKVTKEQYNMLGGKYQGTILSIDDNLQRTCTGTININIQSFGNDDRTNTEPNTKITTNTGRQESTSSTNYDTSTTSTDSSQVYSSEPGNGAKDLLSDNVHFGPAGIGLLIMGFLVLGLVPFLMICCDCGGAPRSAAGFEPVPECSDGAIHSWAVEGPQPEPRDITTVIPQIPPDNANIIECIDNSGVYTNEYGGREMQDLGGGERMTGFELTEGVKTSGMPEICQEYSGTLRRNSMRECREGGLNMNFMESYFCQKAYAYADEDEGRPSNDCLLIYDIEGVGSPAGSVGCCSFIGEDLDDSFLDTLGPKFKKLADISLGKESYPDLDPSWPPQSTEPVCLPQETEPVVSGHPPISPHFGTTTVISESTYPSGPGVLHPKPILDPLGYGNVTVTESYTTSDTLKPSVHVHDNRPASNVVVTERVVGPISGADLHGMLEMPDLRDGSNVIVTERVIAPSSSLPTSLTIHHPRESSNVVVTERVIQPTSGMIGSLSMHPELANAHNVIVTERVVSGAGVTGISGTTGISGGIGSSGLVGTSMGAGSGALSGAGISGGGIGLSSLGGTASIGHMRSSSDHHFNQTIGSASPSTARSRITKYSTVQYSK | 0 | 5 | 0 | 0 | 0
